± gives the uncertainty stated by the source.
B1: Ankyrin-3, residues 4094 to 4171; numbered along this chain, Q12955 (parent)
chain: MAIVADHLGLSWTELARELNFSVDEINQIRVENPNSLISQSFMLLKKWVTRDGKNATTDALTSVLTKINRIDIVTLLE
B2: 3'-5' exoribonuclease 1, residues 65 to 114; numbered along this chain, Q8IV48 (parent)
chain: VYKEIAITNGCINRMSKEELRAKLSEFKLETRGVKDVLKKRLKNYYKKQK

Variants of: B1
Assay: abundance fitness (aPCA) (normalised: wild type 0, dead -1); higher = more abundant; growth selection in yeast, the domain comes from the species named
Details: Homo sapiens

Abundance fitness, by site and new letter:
I68: R -0.965 ± 0.12; C -0.402 ± 0.17; Q -0.806 ± 0.24; L -0.219 ± 0.057; W -0.878 ± 0.28; T -0.987 ± 0.31; P -0.37 ± 0.12; M -0.244 ± 0.097; V -0.284 ± 0.065; S -0.935 ± 0.21; K -0.606 ± 0.25; E -0.964 ± 0.34; F -0.963 ± 0.34; A -0.868 ± 0.13; G -0.916 ± 0.15
N69: H -0.308 ± 0.18; S -0.29 ± 0.057; C -0.549 ± 0.23; D -0.178 ± 0.12; P -0.811 ± 0.16; V -0.928 ± 0.14; L -0.679 ± 0.1; A -0.339 ± 0.074; G 0.073 ± 0.047; W -1.01 ± 0.44; Y -0.699 ± 0.12; Q -0.061 ± 0.12; R -0.224 ± 0.067; E -0.032 ± 0.12; K -0.104 ± 0.14; M -0.61 ± 0.23
R70: L -0.82 ± 0.13; P -0.74 ± 0.29; A -0.918 ± 0.19; G -1 ± 0.14; K -0.393 ± 0.24; M -0.774 ± 0.33; Q -0.908 ± 0.23; D -0.753 ± 0.25; C -0.817 ± 0.2; W -0.795 ± 0.11; V -0.876 ± 0.2
D72: P -0.396 ± 0.12; A -0.739 ± 0.14; L -0.718 ± 0.11; R -0.784 ± 0.11; V -0.644 ± 0.11; W -0.894 ± 0.32; E -0.567 ± 0.17; G -0.878 ± 0.14; Q -0.702 ± 0.3; C -0.958 ± 0.38; S -0.855 ± 0.16; M -0.738 ± 0.33
E78: Y -0.159 ± 0.14; W -0.649 ± 0.36; S -0.089 ± 0.065; G 0.077 ± 0.13; N -0.014 ± 0.09; C -0.275 ± 0.17; M -0.211 ± 0.11; H -0.026 ± 0.085; V -0.206 ± 0.075; Q -0.397 ± 0.2; L -0.326 ± 0.088; F -0.13 ± 0.1; K -0.025 ± 0.085; T -0.063 ± 0.032; D -0.001 ± 0.072; I -0.219 ± 0.041
I71: G 0.085 ± 0.049; V 0.015 ± 0.055; L 0.081 ± 0.053; Q 0.136 ± 0.14; Y 0.082 ± 0.19; M 0.039 ± 0.062; T -0.016 ± 0.13; A -0.075 ± 0.071; N -0.155 ± 0.22; F 0.066 ± 0.12; H -0.198 ± 0.12; E -0.066 ± 0.095; W -0.029 ± 0.077; D 0.307 ± 0.22; K 0.057 ± 0.13; S -0.048 ± 0.076; C -0.167 ± 0.15; P -0.046 ± 0.063; R -0.036 ± 0.045
T75: H -0.219 ± 0.15; Q 0.026 ± 0.083; N 0.06 ± 0.1; F -0.236 ± 0.22; W -0.189 ± 0.072; D -0.155 ± 0.13; E 0.079 ± 0.1; V -0.112 ± 0.088; C -0.081 ± 0.071; L 0.006 ± 0.056; S -0.004 ± 0.056; M -0.026 ± 0.1; I -0.182 ± 0.11; R -0.002 ± 0.048
L76: H -0.064 ± 0.12; F -0.231 ± 0.21; P -0.438 ± 0.079; D -0.351 ± 0.32; G -0.457 ± 0.066; W -0.489 ± 0.12; N -0.292 ± 0.31; T -0.197 ± 0.083; S -0.175 ± 0.06; R 0.045 ± 0.039; E -0.185 ± 0.098; V 0.026 ± 0.058; M 0.067 ± 0.23; I 0.434 ± 0.46; Y -0.546 ± 0.33; Q 0.028 ± 0.085; C -0.045 ± 0.096; A 0.08 ± 0.077
I73: W -0.793 ± 0.15; G -0.977 ± 0.15; S -0.849 ± 0.25; E -0.989 ± 0.31; V -0.276 ± 0.089; P -0.858 ± 0.17; M -0.503 ± 0.14; A -0.631 ± 0.16; Y -0.938 ± 0.39; H -0.715 ± 0.24; N -0.597 ± 0.39; C -0.695 ± 0.16; L -0.148 ± 0.05
K67: S -0.285 ± 0.072; R -0.091 ± 0.1; V -0.276 ± 0.051; P -0.646 ± 0.2; T -0.228 ± 0.18; Q -0.056 ± 0.12; W -0.667 ± 0.37
V74: P -0.86 ± 0.26; D -0.944 ± 0.38; M -0.749 ± 0.41; E -0.888 ± 0.16; S -0.656 ± 0.12; Y -0.55 ± 0.35; R -0.827 ± 0.12; N -0.777 ± 0.33; T -0.142 ± 0.099; K -0.255 ± 0.18; G -0.651 ± 0.11; F -1.08 ± 0.37; L -0.399 ± 0.074
L77: R -0.93 ± 0.13; T -0.434 ± 0.097; H -0.742 ± 0.23; C -0.164 ± 0.12; P -0.768 ± 0.14; M -0.022 ± 0.12; I -0.293 ± 0.22; Q -0.805 ± 0.23; G -0.68 ± 0.11; V -0.139 ± 0.048; K -0.602 ± 0.22; S -0.526 ± 0.088; W -0.518 ± 0.077

Variants of: B2
Assay: as above
Details: Homo sapiens

Abundance fitness: each site, then its substitutions
G10: A -0.118 ± 0.035; T -0.121 ± 0.043; C -0.23 ± 0.04; L -0.37 ± 0.034; E -0.155 ± 0.046; I -0.34 ± 0.07; K -0.112 ± 0.044; Q -0.125 ± 0.045; W -0.401 ± 0.041; P -0.248 ± 0.04; S -0.146 ± 0.033; H -0.18 ± 0.053; F -0.323 ± 0.043; N -0.147 ± 0.076; R -0.248 ± 0.035
T8: D -0.274 ± 0.052; G -0.215 ± 0.037; P -0.069 ± 0.042; M -0.161 ± 0.053; F -0.472 ± 0.049; C -0.29 ± 0.054; Q -0.199 ± 0.048; R -0.174 ± 0.036; L -0.388 ± 0.037; S -0.019 ± 0.039; W -0.513 ± 0.049; Y -0.49 ± 0.057; E -0.24 ± 0.049; K -0.07 ± 0.048; H -0.268 ± 0.049
V1: N 0.093 ± 0.15; D -0.078 ± 0.054; F -0.104 ± 0.058; S -0.038 ± 0.079; M -0.065 ± 0.081; G 0.002 ± 0.044; Y -0.083 ± 0.12; R -0.37 ± 0.093; T -0.122 ± 0.12; C -0.072 ± 0.071; K -0.043 ± 0.43; W -0.102 ± 0.074; Q -0.369 ± 0.15; I -0.025 ± 0.034; L -0.047 ± 0.061
A6: F -0.078 ± 0.077; D -0.183 ± 0.43; W -0.261 ± 0.16; H 0.022 ± 0.09; G -0.084 ± 0.21; E -0.092 ± 0.14; S -0.075 ± 0.063; V 0.011 ± 0.12; N -0.003 ± 0.063; Y -0.008 ± 0.09; M -0.096 ± 0.11; P 0.007 ± 0.063; L -0.082 ± 0.07; I 0.019 ± 0.082; C -0.172 ± 0.13; Q -0.179 ± 0.11
Y2: W -0.069 ± 0.083; F -0.053 ± 0.054; E 0.048 ± 0.075; K 0.041 ± 0.064; Q 0.076 ± 0.076; G 0.069 ± 0.047; H 0.01 ± 0.061; D 0.1 ± 0.07; M 0.012 ± 0.065; V 0.021 ± 0.046; P 0.046 ± 0.061; R -0.072 ± 0.045; S 0.028 ± 0.044; I 0.004 ± 0.052; N 0.067 ± 0.062; A 0.006 ± 0.052; C 0.013 ± 0.062; L -0.052 ± 0.043
I5: S -0.004 ± 0.036; D 0.026 ± 0.049; Y -0.029 ± 0.044; K -0.042 ± 0.056; L -0.051 ± 0.038; A 0.007 ± 0.041; N -0.004 ± 0.045; W -0.225 ± 0.056; M 0.052 ± 0.056; R -0.101 ± 0.039; F -0.065 ± 0.048; E -0.044 ± 0.092; V -0.037 ± 0.04; G 0.025 ± 0.046; T 0.066 ± 0.043; Q 0.041 ± 0.057; P -0.003 ± 0.043; H -0.006 ± 0.042
N9: V -0.092 ± 0.043; C -0.047 ± 0.041; P 0.015 ± 0.045; L -0.127 ± 0.038; Q -0.174 ± 0.061; A -0.033 ± 0.043; W -0.331 ± 0.044; D -0.244 ± 0.06; T -0.12 ± 0.042; K 0.066 ± 0.055; H -0.066 ± 0.052; E -0.241 ± 0.062; F -0.091 ± 0.054; S -0.067 ± 0.037; M 0.036 ± 0.053
K3: W -0.509 ± 0.052; Q -0.035 ± 0.061; G -0.05 ± 0.041; T -0.081 ± 0.046; I -0.336 ± 0.06; R -0.131 ± 0.035; C -0.145 ± 0.057; D -0.192 ± 0.072; V -0.294 ± 0.044; H -0.055 ± 0.064; N 0.058 ± 0.07; S -0.06 ± 0.039; A -0.089 ± 0.043; F -0.34 ± 0.061; M -0.287 ± 0.049; Y -0.251 ± 0.08; E 0.012 ± 0.064; L -0.331 ± 0.042
E4: D 0.003 ± 0.045; Y -0.164 ± 0.053; H -0.173 ± 0.053; P -0.107 ± 0.051; F -0.214 ± 0.058; T -0.06 ± 0.047; W -0.229 ± 0.047; I -0.287 ± 0.063; A -0.113 ± 0.038; Q -0.085 ± 0.061; M -0.144 ± 0.05; G -0.093 ± 0.036; C -0.161 ± 0.05; R -0.353 ± 0.036; S -0.077 ± 0.039; K -0.251 ± 0.056; L -0.334 ± 0.041; N -0.057 ± 0.056
I7: L 0.019 ± 0.035; P -0.067 ± 0.041; F -0.198 ± 0.047; N -0.17 ± 0.058; E -0.175 ± 0.051; H -0.166 ± 0.057; V -0.091 ± 0.037; K -0.131 ± 0.049; Y -0.14 ± 0.048; G -0.13 ± 0.034; A -0.097 ± 0.04; M -0.016 ± 0.042; D -0.171 ± 0.051; S -0.142 ± 0.037; Q -0.141 ± 0.05; T -0.1 ± 0.056; W -0.287 ± 0.037; C -0.164 ± 0.039; R -0.178 ± 0.033

— the Human Domainome abundance scans (Beltran et al. 2025)
